Results taken from publication PMC12548415 (2025).

Columns and labels:
[1] = target: wild-type raccoon dog parvovirus strain RDPV/FLD/2010, capsid of VP2 (raccoon dog parvovirus, strain …); experiment: BLI
[2] = target: wild-type raccoon dog parvovirus strain RDPV/CL/2016, capsid of VP2 (raccoon dog parvovirus, strain …); experiment: BLI

B1: raccoon dog transferrin receptor ectodomain (recombinant RDTfR, from residue 121, C-terminal 6x His) (receptor)
chain: EEYFPETPSRLFWTDLKTMLSERLSNTDFTNTMRWLNENSYVPREAGSQKDESLALLIENRFREFQLSKSWRDEHFVKIQVKSSNAQNTVTIVGTESGLVYLVENPEGYVAYSKATTVTGRLVHVNFGTKKDFENLKSPVNGSLVIARAGKITFAEKVANAQSYNALGVLIYMDQARFPIVNAQIPFFGHAHLGTGDPYTPGFPSFNHTQFPPSQSSGLPSIPVQTIPRAVAEKLFENMEGDCPSAWEIDPSCRLETSPNKNVKLTVNNVLKEIRIFNIFGVIKGFEEPDRYVVIGAQRDAWGPGAAKSSVGTALLLELARIFSDMVLKGGFKPSRSIVFASWSAGDFGAIGATEWLEGYLSSLHLKAFTYINLDKAILGTSNFKVSASPLLYSLLEKTMKDVKHPITGQSLYRDSNWINKVEKWSLDNAAFPFLAYSGIPAVSFCFCEDTDYPYLGTTMDLYENLNQKIPQLNKMARGAAEVAGQLIIKLTYDLELNLNYEMYNDKILSFVRDMNQFRTDLKEMGLNLQWLYSARGDFFRATSRLTTDYKNAERTNRFVMREINDRIMKVEHNFLSPYVSPRDSPFRHIFWGSGSHTLPALVEHLKLRQKNNSAFNETLLRNQLALATWTIQGAANALSGDIWDIDNEL
- koff [1]: 0.0126 s⁻¹
- koff [2]: 0.00441 s⁻¹
